For orientation: stoichiometry N means a count of units in the complex or per binding partner. One may read the Kd as the equilibrium constant for the complex coming apart. The low end stands for higher affinity, the high end for lower affinity.

The target of experiment [1] is N_(IDR1-core), N variant with IDR1, RBD and DD in which the 67-residue linker is replaced by a 12-residue GSA-linker (SARS-CoV-2).
For experiment [2] the target is unchanged. The experiment in a line: ITC; iTC200, 10°C; […]; 20 mM Tris-HCl pH 8.0, 150 mM NaCl, 5% glycerol; […]. A general note: In ITC the heat of successive injections is recorded.

“N_(IDR1-core), N variant with IDR1, RBD and DD in which the 67-residue linker is replaced by a 12-residue GSA-linker (domain or fragment)”: in experiment [1], the stoichiometry N worked out at 2. On to “UPF2S, UPF2 variant comprising the MIF4G3 and the U1BD domains (from UniProt Q9HAU5 761-1227) (domain or fragment)”, for which, in experiment [2], the dissociation constant (Kd) was determined as 2900 nM.

Source of the values: article PMC11602160.
